B1: Regulatory protein NPR4 (Arabidopsis thaliana (Mouse-ear cress)), Q5ICL9 (parent)
chain: MAATAIEPSSSISFTSSHLSNPSPVVTTYHSAANLEELSSNLEQLLTNPDCDYTDAEIIIEEEANPVSVHRCVLAARSKFFLDLFKKDKDSSEKKPKYQMKDLLPYGNVGREAFLHFLSYIYTGRLKPFPIEVSTCVDSVCAHDSCKPAIDFAVELMYASFVFQIPDLVSSFQRKLRNYVEKSLVENVLPILLVAFHCDLTQLLDQCIERVARSDLDRFCIEKELPLEVLEKIKQLRVKSVNIPEVEDKSIERTGKVLKALDSDDVELVKLLLTESDITLDQANGLHYAVAYSDPKVVTQVLDLDMADVNFRNSRGYTVLHIAAMRREPTIIIPLIQKGANASDFTFDGRSAVNICRRLTRPKDYHTKTSRKEPSKYRLCIDILEREIRRNPLVSGDTPTCSHSMPEDLQMRLLYLEKRVGLAQLFFPAEANVAMDVANVEGTSECTGLLTPPPSNDTTENLGKVDLNETPYVQTKRMLTRMKALMKTVETGRRYFPSCYEVLDKYMDQYMDEEIPDMSYPEKGTVKERRQKRMRYNELKNDVKKAYSKDKVARSCLSSSSPASSLREALENPT
partner: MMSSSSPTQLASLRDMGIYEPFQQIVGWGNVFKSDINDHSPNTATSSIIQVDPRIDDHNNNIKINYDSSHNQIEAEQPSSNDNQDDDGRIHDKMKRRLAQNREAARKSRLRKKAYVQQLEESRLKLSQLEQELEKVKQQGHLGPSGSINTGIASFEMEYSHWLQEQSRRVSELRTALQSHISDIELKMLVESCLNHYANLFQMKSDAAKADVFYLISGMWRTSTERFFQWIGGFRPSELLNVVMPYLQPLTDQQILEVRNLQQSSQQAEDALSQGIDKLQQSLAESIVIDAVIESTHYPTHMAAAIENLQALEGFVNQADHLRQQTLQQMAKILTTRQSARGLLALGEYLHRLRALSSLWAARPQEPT
B2: Regulatory protein NPR4 (Arabidopsis thaliana (Mouse-ear cress)), Q5ICL9 (parent)
chain: B1 chain
partner: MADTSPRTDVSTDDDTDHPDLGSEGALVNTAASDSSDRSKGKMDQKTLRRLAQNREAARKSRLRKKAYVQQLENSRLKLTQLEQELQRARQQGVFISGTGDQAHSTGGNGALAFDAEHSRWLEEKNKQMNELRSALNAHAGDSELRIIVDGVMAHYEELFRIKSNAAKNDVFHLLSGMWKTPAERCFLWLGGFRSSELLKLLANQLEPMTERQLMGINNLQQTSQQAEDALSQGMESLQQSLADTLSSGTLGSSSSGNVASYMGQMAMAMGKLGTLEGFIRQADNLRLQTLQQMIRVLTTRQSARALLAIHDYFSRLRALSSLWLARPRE

Variants of B1 are the subject of one assay. The settings on record: with tga7_arath TGA7, Q93ZE2.
In the case of MAATAIEPSSSISFTSSHLSNPSPVVTTYHSAANLEELSSNLEQLLTNPDCDYTDAEIIIEEEANPVSVHRCVLAARSKFFLDLFKKDKDSSEKKPKYQMKDLLPYGNVGREAFLHFLSYIYTGRLKPFPIEVSTCVDSVCAHDSCKPAIDFAVELMYASFVFQIPDLVSSFQRKLRNYVEKSLVENVLPILLVAFHCDLTQLLDQCIERVARSDLDRFCIEKELPLEVLEKIKQLRVKSVNIPEVEDKSIERTGKVLKALDSDDVELVKLLLTESDITLDQANGLHYAVAYSDPKVVTQVLDLDMADVNFRNSRGYTVLYIAAMRREPTIIIPLIQKGANASDFTFDGRSAVNICRRLTRPKDYHTKTSRKEPSKYRLCIDILEREIRRNPLVSGDTPTCSHSMPEDLQMRLLYLEKRVGLAQLFFPAEANVAMDVANVEGTSECTGLLTPPPSNDTTENLGKVDLNETPYVQTKRMLTRMKALMKTVETGRRYFPSCYEVLDKYMDQYMDEEIPDMSYPEKGTVKERRQKRMRYNELKNDVKKAYSKDKVARSCLSSSSPASSLREALENPT [H321Y], the “effect of a mutation on the interaction” value is recorded as “disrupting interaction”.

Variants of B2 are the subject of the next assay. The settings on record: with tga2_arath TGA2, P43273.
Take MAATAIEPSSSISFTSSHLSNPSPVVTTYHSAANLEELSSNLEQLLTNPDCDYTDAEIIIEEEANPVSVHRCVLAARSKFFLDLFKKDKDSSEKKPKYQMKDLLPYGNVGREAFLHFLSYIYTGRLKPFPIEVSTCVDSVCAHDSCKPAIDFAVELMYASFVFQIPDLVSSFQRKLRNYVEKSLVENVLPILLVAFHCDLTQLLDQCIERVARSDLDRFCIEKELPLEVLEKIKQLRVKSVNIPEVEDKSIERTGKVLKALDSDDVELVKLLLTESDITLDQANGLHYAVAYSDPKVVTQVLDLDMADVNFRNSRGYTVLYIAAMRREPTIIIPLIQKGANASDFTFDGRSAVNICRRLTRPKDYHTKTSRKEPSKYRLCIDILEREIRRNPLVSGDTPTCSHSMPEDLQMRLLYLEKRVGLAQLFFPAEANVAMDVANVEGTSECTGLLTPPPSNDTTENLGKVDLNETPYVQTKRMLTRMKALMKTVETGRRYFPSCYEVLDKYMDQYMDEEIPDMSYPEKGTVKERRQKRMRYNELKNDVKKAYSKDKVARSCLSSSSPASSLREALENPT [H321Y]: the “effect of a mutation on the interaction” value is given as “disrupting interaction”.
